The values below come from doi:10.1101/2020.04.13.039982 (bioRxiv, 2020).

The target in this assay is T1, 6His-She1 C-terminal fragment (residues 194 to 338) (S. cerevisiae, UniProt P38200 194-338).
T1 sequence (looked up): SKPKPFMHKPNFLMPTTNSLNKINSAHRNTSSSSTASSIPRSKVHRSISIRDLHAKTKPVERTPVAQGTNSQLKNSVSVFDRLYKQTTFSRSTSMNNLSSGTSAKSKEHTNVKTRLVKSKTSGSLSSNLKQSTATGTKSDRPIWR
The assay is described as follows: pull-down.

B1: peptide encompassing the C-terminus of Tub1 (amino acids 415-447), wild-type (peptide)
peptide: not shown
Take B1: the binding result is recorded as “binds”.
